Data as given in patent US20100323969 (published 2010).
Ends that are not written are not given here. * marks the point of attachment. Galloyl = O=C(c1cc(O)c(O)c(O)c1)*

B1: Compound 12 (GA-WVDV) (peptide)
chain: Galloyl-WVDV
B2: A129 (peptide)
chain: DWVDV
B3: A29 (peptide)
chain: EWVDV
B4: TM11 (peptide)
chain: CDVEWVDVSSLEWDLPC
B5: A130 (peptide)
chain: KWVDV
B6: A131 (peptide)
chain: AWVDV
B7: Compound 13 (GA-EWVDV) (peptide)
chain: Galloyl-EWVDV

Target: T1, human P-selectin IgG-Fc chimera (human, UniProt P16109)
T1 chain: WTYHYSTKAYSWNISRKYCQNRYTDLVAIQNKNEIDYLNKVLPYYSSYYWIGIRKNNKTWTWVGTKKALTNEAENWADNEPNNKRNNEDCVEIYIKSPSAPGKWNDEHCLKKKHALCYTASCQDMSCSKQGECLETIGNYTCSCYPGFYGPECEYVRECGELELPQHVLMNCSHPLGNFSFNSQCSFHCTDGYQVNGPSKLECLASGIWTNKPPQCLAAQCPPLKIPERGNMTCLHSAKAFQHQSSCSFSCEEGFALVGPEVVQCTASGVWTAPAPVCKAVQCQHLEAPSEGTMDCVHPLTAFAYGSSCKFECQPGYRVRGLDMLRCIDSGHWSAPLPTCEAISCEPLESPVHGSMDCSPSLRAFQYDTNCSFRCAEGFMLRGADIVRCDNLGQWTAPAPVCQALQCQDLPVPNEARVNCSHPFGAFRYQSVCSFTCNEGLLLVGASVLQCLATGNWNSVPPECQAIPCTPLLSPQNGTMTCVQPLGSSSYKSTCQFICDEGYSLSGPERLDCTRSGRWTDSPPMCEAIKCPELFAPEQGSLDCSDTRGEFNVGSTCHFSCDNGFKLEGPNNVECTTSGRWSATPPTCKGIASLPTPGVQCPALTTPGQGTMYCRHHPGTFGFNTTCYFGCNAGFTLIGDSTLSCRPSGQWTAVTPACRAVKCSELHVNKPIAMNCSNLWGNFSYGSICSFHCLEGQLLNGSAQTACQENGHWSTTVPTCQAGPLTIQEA
Assay: competition ELISA

Q: How did the IC50 turn out when B1 was run?
A: 0.0371 µM

Target: T1, human P-selectin IgG-Fc chimera
Assay: competition ELISA
Remark: another data set of the same source

Q: For B1, which IC50 is on record?
A: 0.037 µM

Q: Which IC50 does the source give for B2 here?
A: 16 µM

Q: Which IC50 does the source give for B3 here?
A: 8 µM

Q: With B4 as the binder, how does the IC50 read?
A: 2 µM

Q: How did the IC50 turn out when B5 was run?
A: 28 µM

Q: With B6 as the binder, how does the IC50 read?
A: 27 µM

Q: For B7, which IC50 is on record?
A: 0.031 µM
